Results from PMC12489471, “A multi-dentate, cooperative interaction between endo- and exo-ribonucleases within the bacterial RNA degradosome” (Nucleic Acids Research, 2025).

Test system: PNPase core
Experiment: Cryo-EM of E. coli PNPase core:RNase E complex
Type: binding
Conditions: 20 mM Tris–HCl pH 8.0, 25 mM MgCl2, 150 mM KCl, 1 mM TCEP
Method: The PNPase core encoding sequence from E. coli (aa 1–552), Salmonella enterica serovar Typhimurium (UniProt: Q8ZLT3) (aa 1–552), or Pseudomonas aeruginosa (strain PAO1, UniProt: Q9HV59) (aa 1–553) was amplified using corresponding genomic DNA as a template and cloned into pExp-Mxe-CHis expression vector. The protein of interest, produced as a fusion with C-terminal 8×His-tagged Mycobacterium xenopi GyrA intein, was expressed in Evo21(DE3) cells at 18°C overnight following induction with 0.4 mM IPTG. […] After cleavage, the protein buffer was exchanged using HiPrep 26/10 desalting column (Cytiva), and the protein solution was reapplied to Ni-NTA resin to remove His-tagged intein and uncleaved material. […]
Purified PNPase core and RNE-muGFP-CHis proteins were mixed in 1:2 ratio and their complex were separated on the Superdex 200 Increase 10/300 GL column (Cytiva) equilibrated with cryo-EM Buffer (20 mM Tris–HCl, pH 8.0, 25 mM MgCl2, 150 mM KCl, 1 mM TCEP). […] The samples were mixed with CHAPSO (3-([3-cholamidopropyl]dimethylammonio)-2-hydroxy-1-propanesulfonate) at a final concentration of 8 mM before being applied onto R2/2 Au Ultrafoil grids (Quantifoil) that had been pre-treated by glow-discharge (PELCO easiGLOW: 60 s, 25 mA, 0.39 mBar). […]

B1: RNase E 960 – 1061 wildtype: wildtype RNase E peptide 960–1061 (peptide)
chain: VVETAEVVVAEPEVVAQPAAPVVAEVAAEVETVAAVEPEVTVEHNHATAPMTRAPAPEYVPEAPRHSDWQRPTFAFEGKGAAGGHTATHHASAAPARPQPVE
modifications: left off: His6, N-terminal, cleaved | MBP, N-terminal, cleaved | intein, C-terminal, cleaved | choline-binding domain, C-terminal, cleaved
binding mode / stoichiometry with E. coli PNPase core: interacting with two protomers of the trimeric PNPase core
